Measurements from patent publication US20190359693A1 (Janssen / Centocor, published 2019).

Each binder was assayed against hemagglutinin (HA) of influenza B/Brisbane/60/08 (Victoria) (influenza B virus) (assay: cell-based or functional assay).

| Binder | VNA IC50 [nM] |
| --- | --- |
| SD1083 (VHH) VHH: EVQLVESGGGLVQPGGSLRLSCAATGFTLENKAIGWFRQTPGSEREGVLCISKSGSWTYYTDSMRGRFTISRDNAENTVYLQMDSLKPEDTAVYYCATTTAGGGLCWDGTTFSRLASSWGQGTQVTVSS | 174 |
| SD1084 (VHH) VHH: EVQLVESGGGLVQPGGSLKLSCAASGFTFSTSWMYWLRQAPGKGLEWVSVINTDGGTYYADSVKDRFTISRDNAKDTLYLQMSSLKSEDTAVYYCAKDWGGPEPTRGQGTQVTVSS | 12 |
| SD3002 (VHH) VHH: EVQLVESGGGLVQPGGSLRLSCAASGFTFSTSWMYWLRQAPGKGLEWVSVINTDGGTYYADSVKGRFTISRDNSKNTLYLQMNSLRAEDTAVYYCAKDWGGPEPTRGQGTQVTVSS | 5 |
| SD3003 (VHH) VHH: EVQLVESGGGLVQPGGSLRLSCAASGFTFSTSWMSWLRQAPGKGLEWVSVINTDGGTYYADSVKGRFTISRDNSKDTLYLQMNSLRAEDTAVYYCAKDWGGPEPTRGQGTQVTVSS | 101 |
| SD3085 (VHH) VHH: EVQLVESGGGLVQPGGSLRLSCAASGFTFSTSWMYWLRQAPGKGLEWVSVINTDGGTYYADSVKGRFTISRDNSKNTLYLQMNSLRAEDTAVYYCAKDWGGPEPTRGQGTLVTVSS | 12 |
| SD3004 (VHH) VHH: EVQLVESGGGLVQPGGSLRLSCAASGFTFSTSWMYWLRQAPGKGLEWVSVINTDGGTYYADSVKGRFTISRDNSKDTLYLQMNSLRAEDTAVYYCAKDWGGPEPTRGQGTQVTVSS | 5 |
| SD3086 (VHH) VHH: EVQLVESGGGLVQPGGSLRLSCAASGFTFSTSWMYWVRQAPGKGLEWVSVINTDGGTYYADSVKGRFTISRDNSKNTLYLQMNSLRAEDTAVYYCAKDWGGPEPTRGQGTLVTVSS | 40 |
| SD3001 (VHH) VHH: EVQLVESGGGLVQPGGSLRLSCAASGFTFSTSWMSWLRQAPGKGLEWVSVINTDGGTYYADSVKGRFTISRDNSKNTLYLQMNSLRAEDTAVYYCAKDWGGPEPTRGQGTQVTVSS | 101 |
| SD3007 (VHH) VHH: EVQLLESGGGLVQPGGSLRLSCAASGFTLENKAIGWFRQAPGKEREGVSCISKSGSWTYYADSVKGRFTISRDNSKNTVYLQMNSLRAEDTAVYYCATTTAGGGLCWDGTTFSRLASSWGQGTQVTVSS | > 1000 |
| SD3011 (VHH) VHH: EVQLLESGGGLVQPGGSLRLSCAASGFTLENKAIGWFRQAPGKEREGVLCISKSGSWTYYADSVKGRFTISRDNSKNTVYLQMNSLRAEDTAVYYCATTTAGGGLCWDGTTFSRLASSWGQGTQVTVSS | 53 |
| SD3087 (VHH) VHH: EVQLLESGGGLVQPGGSLRLSCAASGFTLENKAIGWFRQAPGKEREGVLCISKSGSWTYYADSVKGRFTISRDNSKNTVYLQMNSLRPEDTAVYYCATTTAGGGLCWDGTTFSRLASSWGQGTLVTVSS | 32 |
| SD3088 (VHH) VHH: EVQLLESGGGLVQPGGSLRLSCAASGFTLENKAIGWFRQAPGKEREGVLCISKSGSWTYYADSVKGRFTISRDNSKNTLYLQMNSLRAEDTAVYYCATTTAGGGLCWDGTTFSRLASSWGQGTLVTVSS | 101 |
| SD3010 (VHH) VHH: EVQLLESGGGLVQPGGSLRLSCAASGFTLENKAIGWFRQAPGKEREGVLCISKSGSWTYYADSVKGRFTISRDNSKNTLYLQMNSLRAEDTAVYYCATTTAGGGLCWDGTTFSRLASSWGQGTQVTVSS | 149 |
| SD3008 (VHH) VHH: EVQLLESGGGLVQPGGSLRLSCAASGFTLENKAIGWFRQAPGKEREGVSCISKSGSWTYYADSVKGRFTISRDNSKNTVYLQMNSLRPEDTAVYYCATTTAGGGLCWDGTTFSRLASSWGQGTQVTVSS | > 1000 |
| SD3009 (VHH) VHH: EVQLLESGGGLVQPGGSLRLSCAASGFTLENKAMSWFRQAPGKEREGVLCISKSGSWTYYADSVKGRFTISRDNSKNTLYLQMNSLRAEDTAVYYCATTTAGGGLCWDGTTFSRLASSWGQGTQVTVSS | 194 |
| SD3012 (VHH) VHH: EVQLLESGGGLVQPGGSLRLSCAASGFTLENKAIGWFRQAPGKEREGVLCISKSGSWTYYADSVKGRFTISRDNSKNTVYLQMNSLRPEDTAVYYCATTTAGGGLCWDGTTFSRLASSWGQGTQVTVSS | 59 |
| SD1087 (VHH) VHH: EVQLVESGGGLVQPGGSLRLSCVISGLSLDTYAVGWFRQAPGKEREGITCISSGHGMTYYADSVKGRFTVSTDNAKNTVYLQMNGLQPEDTARYYCATESRYYCSDNWPAPQRYIYWGQGTQVTVSS | 34 |
| SD3054 (VHH) VHH: EVQLVESGGGLVQPGGSLRLSCAASGLSLDTYAMSWFRQAPGKEREGITCISSGHGITYYADSVKGRFTISRDNSKNTLYLQMNSLQPEDTARYYCATESRYYCSDNWPAPQRYIYWGQGTQVTVSS | > 1000 |
| SD3050 (VHH) VHH: EVQLVESGGGLVQPGGSLRLSCAASGLSLDTYAMSWFRQAPGKEREGITCISSGHGMTYYADSVKGRFTISRDNSKNTLYLQMNSLQPEDTARYYCATESRYYCSDNWPAPQRYIYWGQGTQVTVSS | > 1000 |
| SD3055 (VHH) VHH: EVQLVESGGGLVQPGGSLRLSCAASGLSLDTYAMSWFRQAPGKEREGITCISSGHGLTYYADSVKGRFTISRDNSKNTLYLQMNSLQPEDTARYYCATESRYYCSDNWPAPQRYIYWGQGTQVTVSS | > 1000 |
| SD3049 (VHH) VHH: EVQLVESGGGLVQPGGSLRLSCAASGLSLDTYAMSWFRQAPGKEREGVSCISSGHGMTYYADSVKGRFTISRDNSKNTLYLQMNSLQPEDTARYYCATESRYYCSDNWPAPQRYIYWGQGTQVTVSS | > 1000 |
| SD3051 (VHH) VHH: EVQLVESGGGLVQPGGSLRLSCAASGLSLDTYAMSWFRQAPGKEREGVSCISSGHGITYYADSVKGRFTISRDNSKNTLYLQMNSLQPEDTARYYCATESRYYCSDNWPAPQRYIYWGQGTQVTVSS | > 1000 |
| SD3053 (VHH) VHH: EVQLVESGGGLVQPGGSLRLSCAASGLSLDTYAMSWFRQAPGKEREGVSCISSGHGFTYYADSVKGRFTISRDNSKNTLYLQMNSLQPEDTARYYCATESRYYCSDNWPAPQRYIYWGQGTQVTVSS | > 1000 |
| SD3052 (VHH) VHH: EVQLVESGGGLVQPGGSLRLSCAASGLSLDTYAMSWFRQAPGKEREGVSCISSGHGLTYYADSVKGRFTISRDNSKNTLYLQMNSLQPEDTARYYCATESRYYCSDNWPAPQRYIYWGQGTQVTVSS | > 1000 |
